± gives the standard deviation of the averaged measurements.
Tests used:
MCF7 = assay: percentage of EdU-negative (G0-arrested) nuclei per well, 72 h; higher = more G0 arrest; conditions: reference: sequence is the full UniProt precursor, the tested protein was the secreted form or ectodomain
hTERT-HMEC = assay: as above; conditions: reference: sequence is the full UniProt precursor, the tested protein was the secreted form or ectodomain
[1] = protein concentration 0.03125 µM
[2] = protein concentration 0.3125 µM
[3] = protein concentration 0.0225 µM
[4] = protein concentration 0.0114286 µM
[5] = protein concentration 0.114286 µM
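Note: secreted proteins added to cultured cells, EdU pulse at the end, nuclei found by Hoechst imaging, EdU status from nuclear versus surrounding ring intensity ratio, PBS as neutral control.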

Row | Substance | percentage of EdU-negative (MCF7; [1]) | percentage of EdU-negative (MCF7; [2]) | percentage of EdU-negative (hTERT-HMEC; [1]) | percentage of EdU-negative (hTERT-HMEC; [2]) | percentage of EdU-negative (MCF7; [3]) | percentage of EdU-negative (MCF7; protein concentration 0.225 µM) | percentage of EdU-negative (hTERT-HMEC; [3]) | percentage of EdU-negative (hTERT-HMEC; protein concentration 0.225 µM) | also measured
1 | MQAAWLLGALVVPQLLGFGHGARGAEREWEGGWGGAQEEEREREALMLKHLQEALGLPAGRGDENPAGTVEGKEDWEMEEDQGEEEEEEATPTPSSGPSPSPTPEDIVTYILGRLAGLDAGLHQLHVRLHALDTRVVELTQGLRQLRNAAGDTRDAVQALQEAQGRAEREHGRLEGCLKGLRLGHKCFLLSRDFEAQAAAQARCTARGGSLAQPADRQQMEALTRYLRAALAPYNWPVWLGVHDRRAEGLYLFENGQRVSFFAWHRSPRPELGAQPSASPHPLSPDQPNGGTLENCVAQASDDGSWWDHDCQRRLYYVCEFPF [Q9Y240] | 24.4 ± 0.81% | 27.6 ± 1.3% | 6.19 ± 0.7% | 6.64 ± 1.2% |  |  |  |  | 
2 | MTPPPPGRAAPSAPRARVPGPPARLGLPLRLRLLLLLWAAAASAQGHLRSGPRIFAVWKGHVGQDRVDFGQTEPHTVLFHEPGSSSVWVGGRGKVYLFDFPEGKNASVRTVNIGSTKGSCLDKRDCENYITLLERRSEGLLACGTNARHPSCWNLVNGTVVPLGEMRGYAPFSPDENSLVLFEGDEVYSTIRKQEYNGKIPRFRRIRGESELYTSDTVMQNPQFIKATIVHQDQAYDDKIYYFFREDNPDKNPEAPLNVSRVAQLCRGDQGGESSLSVSKWNTFLKAMLVCSDAATNKNFNRLQDVFLLPDPSGQWRDTRVYGVFSNPWNYSAVCVYSLGDIDKVFRTSSLKGYHSSLPNPRPGKCLPDQQPIPTETFQVADRHPEVAQRVEPMGPLKTPLFHSKYHYQKVAVHRMQASHGETFHVLYLTTDRGTIHKVVEPGEQEHSFAFNIMEIQPFRRAAAIQTMSLDAERRKLYVSSQWEVSQVPLDLCEVYGGGCHGCLMSRDPYCGWDQGRCISIYSSERSVLQSINPAEPHKECPNPKPDKAPLQKVSLAPNSRYYLSCPMESRHATYSWRHKENVEQSCEPGHQSPNCILFIENLTAQQYGHYFCEAQEGSYFREAQHWQLLPEDGIMAEHLLGHACALAASLWLGVLPTLTLGLLVH |  |  |  |  | 24.7 ± 2.4% | 25.6 ± 1.6% | 4.66 ± 0.25% | 5.49 ± 0.49% | 
3 | MAPGSRTSLLLAFALLCLPWLQEAGAVQTVPLSRLFDHAMLQAHRAHQLAIDTYQEFEETYIPKDQKYSFLHDSQTSFCFSDSIPTPSNMEETQQKSNLELLRISLLLIESWLEPVRFLRSMFANNLVYDTSDSDDYHLLKDLEEGIQTLMGRLEDGSRRTGQILKQTYSKFDTNSHNHDALLKNYGLLYCFRKDMDKVETFLRMVQCRSVEGSCGF [P0DML2] | 28.31 ± 0.052% | 25.8 ± 0.31% | 5.53 ± 0.26% | 6.34 ± 1.3% |  |  |  |  | 
4 | MARSPGRAYALLLLLICFNVGSGLHLQVLSTRNENKLLPKHPHLVRQKRAWITAPVALREGEDLSKKNPIAKIHSDLAEERGLKITYKYTGKGITEPPFGIFVFNKDTGELNVTSILDREETPFFLLTGYALDARGNNVEKPLELRIKVLDINDNEPVFTQDVFVGSVEELSAAHTLVMKINATDADEPNTLNSKISYRIVSLEPAYPPVFYLNKDTGEIYTTSVTLDREEHSSYTLTVEARDGNGEVTDKPVKQAQVQIRILDVNDNIPVVENKVLEGMVEENQVNVEVTRIKVFDADEIGSDNWLANFTFASGNEGGYFHIETDAQTNEGIVTLIKEVDYEEMKNLDFSVIVANKAAFHKSIRSKYKPTPIPIKVKVKNVKEGIHFKSSVISIYVSESMDRSSKGQIIGNFQAFDEDTGLPAHARYVKLEDRDNWISVDSVTSEIKLAKLPDFESRYVQNGTYTVKIVAISEDYPRKTITGTVLINVEDINDNCPTLIEPVQTICHDAEYVNVTAEDLDGHPNSGPFSFSVIDKPPGMAEKWKIARQESTSVLLQQSEKKLGRSEIQFLISDNQGFSCPEKQVLTLTVCECLHGSGCREAQHDSYVGLGPAAIALMILAFLLLLLVPLLLLMCHCGKGAKGFTPIPGTIEMLHPWNNEGAPPEDKVVPSFLPVDQGGSLVGRNGVGGMAKEATMKGSSSASIVKGQHEMSEMDGRWEEHRSLLSGRATQFTGATGAIMTTETTKTARATGASRDMAGAQAAAVALNEEFLRNYFTDKAASYTEEDENHTAKDCLLVYSQEETESLNASIGCCSFIEGELDDRFLDDLGLKFKTLAEVCLGQKIDINKEIEQRQKPATETSMNTASHSLCEQTMVNSENTYSSGSSFPVPKSLQEANAEKVTQEIVTERSVSSRQAQKVATPLPDPMASRNVIATETSYVTGSTMPPTTVILGPSQPQSLIVTERVYAPASTLVDQPYANEGTVVVTERVIQPHGGGSNPLEGTQHLQDVPYVMVRERESFLAPSSGVQPTLAMPNIAVGQNVTVTERVLAPASTLQSSYQIPTENSMTARNTTVSGAGVPGPLPDFGLEESGHSNSTITTSSTRVTKHSTVQHSYS [J3KSI6] |  |  |  |  | 25 ± 1.2% | 26.57 ± 0.18% | 4.92 ± 0.3% | 5.13 ± 0.22% | 
5 | MELRARGWWLLCAAAALVACARGDPASKSRSCGEVRQIYGAKGFSLSDVPQAEISGEHLRICPQGYTCCTSEMEENLANRSHAELETALRDSSRVLQAMLATQLRSFDDHFQHLLNDSERTLQATFPGAFGELYTQNARAFRDLYSELRLYYRGANLHLEETLAEFWARLLERLFKQLHPQLLLPDDYLDCLGKQAEALRPFGEAPRELRLRATRAFVAARSFVQGLGVASDVVRKVAQVPLGPECSRAVMKLVYCAHCLGVPGARPCPDYCRNVLKGCLANQADLDAEWRNLLDSMVLITDKFWGTSGVESVIGSVHTWLAEAINALQDNRDTLTAKVIQGCGNPKVNPQGPGPEEKRRRGKLAPRERPPSGTLEKLVSEAKAQLRDVQDFWISLPGTLCSEKMALSTASDDRCWNGMARGRYLPEVMGDGLANQINNPEVEVDITKPDMTIRQQIMQLKIMTNRLRSAYNGNDVDFQDASDDGSGSGSGDGCLDDLCSRKVSRKSSSSRTPLTHALPGLSEQEGQKTSAASCPQPPTFLLPLLLFLALTVARPRWR | 27.5 ± 0.42% | 28.9 ± 2.8% | 4.85 ± 0.34% | 28.7 ± 1.6% |  |  |  |  | 
6 | H7BXV5 |  |  |  |  |  |  |  |  | percentage of EdU-negative (MCF7; [4]): 23 ± 0.76%; percentage of EdU-negative (MCF7; [5]): 23.83 ± 0.21%; percentage of EdU-negative (hTERT-HMEC; [4]): 4.71 ± 0.48%; percentage of EdU-negative (hTERT-HMEC; [5]): 7.28 ± 0.91%
7 | MARVLKAAAANAVGLFSRLQAPIPTVRASSTSQPLDQVTGSVWNLGRLNHVAIAVPDLEKAAAFYKNILGAQVSEAVPLPEHGVSVVFVNLGNTKMELLHPLGRDSPIAGFLQKNKAGGMHHICIEVDNINAAVMDLKKKKIRSLSEEVKIGAHGKPVIFLHPKDCGGVLVELEQA [Q96PE7] |  |  |  |  | 23.93 ± 0.19% | 23.1 ± 1.4% | 5.15 ± 0.63% | 6.08 ± 0.26% | 
8 | MPGGPGVLQALPATIFLLFLLSAVYLGPGCQALWMHKVPASLMVSLGEDAHFQCPHNSSNNANVTWWRVLHGNYTWPPEFLGPGEDPNGTLIIQNVNKSHGGIYVCRVQEGNESYQQSCGTYLRVRQPPPRPFLDMGEGTKNRIITAEGIILLFCAVVPGTLLLFRKRWQNEKLGLDAGDEYEDENLYEGLNLDDCSMYEDISRGLQGTYQDVGSLNIGDVQLEKP |  |  |  |  | 25.3 ± 0.85% | 27 ± 1.2% | 5.39 ± 0.06% | 5.986 ± 0.025% | 
9 | MLWRQLIYWQLLALFFLPFCLCQDEYMESPQTGGLPPDCSKCCHGDYSFRGYQGPPGPPGPPGIPGNHGNNGNNGATGHEGAKGEKGDKGDLGPRGERGQHGPKGEKGYPGIPPELQIAFMASLATHFSNQNSGIIFSSVETNIGNFFDVMTGRFGAPVSGVYFFTFSMMKHEDVEEVYVYLMHNGNTVFSMYSYEMKGKSDTSSNHAVLKLAKGDEVWLRMGNGALHGDHQRFSTFAGFLLFETK [Q9BXJ4] |  |  |  |  | 24.8 ± 1.7% | 26.38 ± 0.15% | 5.75 ± 0.2% | 5.41 ± 0.19% | 
10 | MLLSVPLLLGLLGLAVAEPAVYFKEQFLDGDGWTSRWIESKHKSDFGKFVLSSGKFYGDEEKDKGLQTSQDARFYALSASFEPFSNKGQTLVVQFTVKHEQNIDCGGGYVKLFPNSLDQTDMHGDSEYNIMFGPDICGPGTKKVHVIFNYKGKNVLINKDIRCKDDEFTHLYTLIVRPDNTYEVKIDNSQVESGSLEDDWDFLPPKKIKDPDASKPEDWDERAKIDDPTDSKPEDWDKPEHIPDPDAKKPEDWDEEMDGEWEPPVIQNPEYKGEWKPRQIDNPDYKGTWIHPEIDNPEYSPDPSIYAYDNFGVLGLDLWQVKSGTIFDNFLITNDEAYAEEFGNETWGVTKAAEKQMKDKQDEEQRLKEEEEDKKRKEEEEAEDKEDDEDKDEDEEDEEDKEEDEEEDVPGQAKDEL |  |  |  |  | 21.8 ± 0.44% | 28.2 ± 2.5% | 5.2 ± 0.44% | 15.5 ± 2.6% | 
